# What was measured:
# Type in all cases: binding
# [1] = Fluorescence titration of Bbp muteins with digoxigenin
# Method: (§1) The ligand binding properties of muteins DigA, DigA16 and also of the recombinant bilin-binding protein (encoded by SEQ ID NO:16) were determined by means of the method of fluorescence titration. In this case, the decrease in intrinsic tyrosine and/or tryptophan fluorescence of the protein forming a complex with the ligand was measured. The measurements were carried out in a fluorimeter, type LS 50 B (Perkin Elmer) at an excitation wavelength of 295 nm (slit width 4 nm) and an emission wavelength of 345 nm (slit width 6 nm). The ligands used were digoxigenin (Fluka), digoxin (Fluka), digitoxigenin (Fluka), digitoxin (Fluka), testosterone (Sigma), ouabain (Fluka), and 4-aminofluorescein (Fluka).
# (§2) The buffer system used was PBS with the addition of 1 mM EDTA. […] The concentration was determined by means of absorption at 280 nm using calculated extinction coefficients of 53580 M^−1 cm^−1 for DigA and DigA16 (Wisconsin Software Package, Genetics Computer Group). For Bbp, the calculated extinction coefficient of 54150 M^−1 cm^−1, corrected in the presence of guanidinium chloride according to Gill and von Hippel (Anal. Biochem. 182 (1989), 319–326) was used. […]
# (§3) Here, F means the normalized fluorescence intensity and [L]t the total ligand concentration in the particular titration step. […]
# [2] = Fluorescence titration of Bbp muteins with digoxin; conditions: 1 μM mutein, PBS with 1 mM EDTA, 25° C., read-out: Kd, ligand digoxin
# Method: as §1, §2, §3
# [3] = Fluorescence titration of Bbp muteins with digitoxigenin
# Method: as §1, §2, §3
# [4] = Fluorescence titration of Bbp muteins with digitoxin; conditions: 1 μM mutein, PBS with 1 mM EDTA, 25° C., read-out: Kd, ligand digitoxin
# Method: as §1, §2, §3
# [5] = Fluorescence titration of Bbp muteins with ouabain
# Method: as §1, §2, §3
# [6] = Fluorescence titration of Bbp muteins with testosterone; conditions: 1 μM mutein, PBS with 1 mM EDTA, 25° C., read-out: Kd, ligand testosterone
# Method: as §1, §2, §3
# [7] = Fluorescence titration of Bbp muteins with 4-aminofluorescein; conditions: 1 μM mutein, PBS with 1 mM EDTA, 25° C., read-out: Kd, ligand 4-aminofluroescein
# Method: as §1, §2, §3
# [8] = Sandwich ELISA detecting digoxigenin groups with DigA16-alkaline phosphatase fusion proteins; conditions: p-nitrophenyl phosphate hydrolysis, 405 nm, FIG. 3
# Excerpt: Here, the digoxigenin groups were coupled on the one hand to bovine serum albumin (BSA, squares) or, on the other hand, to chicken egg albumin (ovalbumin, triangles) The control data shown are those obtained when using underivatized bovine serum albumin and the fusion protein encoded by pBBP27 (open circles). The enzymatic activity corresponding to the particular bound fusion protein was monitored spectrophotometrically at 405 nm on the basis of p-nitrophenyl phosphate hydrolysis. Curve fitting was carried out by non-linear regression with the aid of the Kaleidagraph computer program (Abelbeck Software) by means of the equation [P·L]=[L]t[P]t/(Kd+[P]t)
# Here, [P]t corresponds to the total fusion protein concentration used in the particular microtiter plate well. [P·L] is determined on the basis of the enzymatic activity of alkaline phosphatase. […]
# For detecting digoxigenin groups in a sandwich ELISA, the wells in in each case two rows of a microtiter plate (ELISA strips, 2×8 well with high binding capacity, F-type, Greiner) were filled in each case with 100 μl of a 100 μg/ml solution of the BSA-digoxigenin conjugate or the ovalbumin-digoxigenin conjugate in PBS and incubated at RT overnight. […] The fusion proteins bound to the digoxigenin groups were finally detected by means of alkaline phosphatase-catalyzed hydrolysis of p-nitrophenyl phosphate. […]
Molecule,"Kd ([1]; fluorescence titration, 1 μM mutein, PBS with 1 mM EDTA, 25° C., read-out: Kd, ligand digoxigenin)",Kd [2],"Kd ([3]; 1 μM mutein, PBS with 1 mM EDTA, 25° C., read-out: Kd, ligand digitoxigenin)","binding of digitoxigenin compared with digoxigenin (FIG. 1, in words) ([3]; FIG. 1)",Kd [4],"Kd ([5]; 1 μM mutein, PBS with 1 mM EDTA, 25° C., read-out: Kd, ligand ouabain)","binding of ouabain (FIG. 1, in words) ([5]; FIG. 1)",Kd [6],Kd [7],binding of the digoxigenin group as conjugate with BSA and with ovalbumin in ELISA (in words) [8],"Kd ([1]; determined according to Example 3, read-out: affinity between the mutein and digoxigenin)"
"DigA16: affinity-improved mutein of the bilin-binding protein derived from DigA, encoded by SEQ ID NO:15 (polypeptide SEQ ID NO: 23) (protein) DVYHDGACPEVKPVDNFDWSQYHGKWWQVAAYPDHITKYGKCGWAEYTPEGKSVKVSRYSVIHGKEYFSEGTAYPVGDSKIGKIYHSYTIGGVTQEGVFNVLSTDNKNYIIGYFCSYDEDKKGHMDLVWVLSRSMVLTGEAKTAVENYLIGSPVVDSQKLVYSDFSEAACKVNN",30.2 ± 3.6 nM,31.1 ± 3.2 nM,2.8 ± 2.7 nM,bound even tighter than digoxigenin,2.7 ± 2 nM,> 10000 nM,no binding is observed,> 10000 nM,> 10000 nM,context-independent,–
"DigA: mutein of the bilin-binding protein selected for digoxigenin binding, SEQ ID NO:12 (amino acid sequence SEQ ID NO: 21) (protein) DVYHDGACPEVKPVDNFDWSQYHGKWWEVAKYPHHERKYGKCGWAEYTPEGKSVKVSRYSVIHGKEYFSEGTAYPVGDSKIGKIYHSYTIGGVTQEGVFNVLSTDNKNYIIGYFCSYDEDKKGHMDLVWVLSRSMVLTGEAKTAVENYLIGSPVVDSQKLVYSDFSEAACKVNN",–,200 ± 34 nM,–,–,–,–,–,–,–,–,295 ± 36 nM

# — US7001882B1, “Muteins of bilin-binding protein” (Pieris Proteolab AG, priority 1999, dated 2006)
